Measured values as given in a protein production outcome set (Wang et al. 2014).

Experiment: label from the status in PepcDB records

Row | Sequence | protein production
1 | MYEPPNQFHCLDADVWIEIPNRVIGVTGNCYVGRDYIPKNGKTRYDVKVFVKKIKKEQENPDTLIKDNDLELSKSKSDDIGTLIEKGVNLRNFKKYDEALQIFEKVTELEPSNAQAWHNKGIILGILKKYNEARQAFEKAMEIEPGKNRRDCSSRHLRSARNRTSERNQGSNVEQ | failed
2 | MTNITPEAKNTNRHSVLLVEKEGRNLARKYHQVLVEELTIIKQGYKTFSSKNIAIPSGFWYHYDTSLTDSYENAKSECFYIPNDNQNYPLQEMRRDCKEYERVEKQVVFKNNKNNELNELPKYLNNAKKY | failed
3 | MDSEGFSPSIYTDKTGHPTIGYGYNLSVYSYEGKRITKTYGLLTDILSYGWYKNLDAMRRMVILDLSYNLGLNGLLKFKQFIKAIEDKNYALAVERLQKSPYFNQVKKERQGIWKF | failed
4 | LPSFRHKVFALVLVGVFVGLGAYLVYMSKAYSYLSDDPRVCINCHVMGPYYATWQHSSHAMRATCNDCHVPHNSIFSKYYFKASDGLRHSYVFTMRNEPQRMQAISASQAVIYDNCVRCHAQLNQEFVRTGMLTRADIRTAEEKACWDCHRDVPHGGKNS | failed
5 | MQIYQLSGRNVEVTEPMREYVEEKLSRLDRYTDQITDARVTLTVRDVRNNERRNRVEVQLNVPGGIIRAEEHHADMYAAIDKASDVLERQLRKFKTRYMKQRQEGRPEPLPGPAEAEVNAQGSGAAMDDVSEFHPEIVRQKRFELRPMSAEDAVVQMEALGHDFYVFQDLQGQTGVVYRRRDGHYGLIGSS | failed
6 | MILGIDIGGANTKITELHENGEFKVHHLYFPMWKNNDKLAEVLKTYSKDISHVALVTTAELADSYETKKEGVDNILNAAESAFGSNISVFDSDGNFISLEGAKTNYMKVSASNWCGTAKWVSKNIEENCILVDMGSTTTDIIPIVDGKVVAEKTDLERLMNHELLYVGTLRTPISHLGNTILFKGVNTNVSSEYFAITADISVVLEKVTTEEYTCDTPDGKGTDKRSSLVRISKVLCSDLDQISEIDAENIAKTYYELWKELILENVKKVAEKYGSKKVVITGIGENILKDALGDFEVISVAERYGKDVSLATPSFAVAELLKNELLEHHHHHH | not failed
7 | MTKSELIEQLCSKKPQLSAKQVEDTVKEILEQMATTLEGGDRIEIRGFGSFSLHYREPRLGRNPKTGDKVELDGKFVPHFKPGKELRERVNYS | failed
8 | MSTDSPLRTTASTCCYCGVGCGVLIEHDGERILGVQGDPRHPANFGRLCSKGASLHLTGDLQARALYPQLRLGKQLARARSDWESALEHAAGRFAETIREHGPDSVAFYISGQLLTEDYYAFNKLARALVGTNNIDSNSRLCMSSAVVGYKRSLGADAPPCSYEDLDCADCVLIAGSNMAFAHPVLFRRLEAAKAARPEMRIVVIDPRRTDTCELADLHLALLPGTDVALFHGILHILLWEDWIDRSFIAEHTEGFADLKELVRDYTPAAVADICGIDRADLQRCAEWIGRSPRFLSLWCMGLNQSSAGSAKNSALINLHLATGKIGRAGCGPFSLTGQPNAMGGRETGSLANLLPGHREAADPGHRAEVAHYWGVEQLPTSPGLSAIELFDAVHDGRIKALWIACTNPAQSLPDQRKIHEALARCPFVVVQEAFAGTETCQYADLLLPAASWGEKEGSVTNSERRISHVRRAVPPPGEARQDWNIVCDFARRLEGHLRPAKPGLFAFADSRSLFDEYKLLTAGRDLDLSGLSYALLDRLGPQQWPFPTGAEQGTARLYADGRFPTASGRAQLVAEPYRAAQEKRDARYPLTLNTGRLRDQWHGMSRTGTCARLFGHEEEALVHLHPEELRRRQLLDGQLVRLKSRRGALVLPVSADDSVRPGQAFLPMHWGDRFLKGLGCNVLTLPAFDPLSKQPELKHAGVQVESVELPWRLFALVETDIQARFEALRALCEVFDHASFSLAGRERPALLVSAAHHEAPGADLLERIDRQLELLDGPILAYDDPRRAIGKRVRLEDGRIVAVRLAGETLARDWLKELWLTGRADSELRRWLLAPLGAAPGRPSQGAGGKTLCSCQNVSQQTVLGGIARGLDLDGLKREFGCGTGCGSCVPEIKRLLAAP | failed
9 | MPPTQAESVIRSIIREIGQECAAHGEIVSETLIAFMVKAVVLDPSNGFNMDRTLMKSDVQNLVKLCMTRLLDTKNPSLDTIKMQVYFDMNYTNRVEFLEEHHRVLESRLGSVTREITDNRACAKEELESLYRKIISYVLLRSGLGSPTDIKTVREVTAALQSVFPQAELGTFLTLSKKDKERQLKELTMIVTGIRLFNRDCGKGGEGIDDLPAVLHVAIPATMQHIDYQLETARSQVYRYTAILEKAANDPLMRAELQPYMLKEALYNIRQYEVFLQIILSDIITGAQEVEMMTKQLGAHLEQLKMTIKSKIAVPTSQVFPIFIALSTLWTSLQDETIVVGVLSNLFTHIQPFLGAHELYFPERVMQCHLNGATVKTDVCRMKEHMEDRVNVADFRKLEWLFPETTANFDKLLIQYRGFCAYTFAATDGLLLPGNPAIGILKYKEKYYTFNSKDAAYSFAENPEHYIDIVREKAKKNTELIQLLELHQQFETFIPYSQMRDADKHYIKPITKCESSTQTNTHILPPTIVRSYEWNEWELRRKAIKLANLRQKVTHSVQTDLSHLRRENCSQVYPPKDTSTQSMREDSTGVPRPQIYLAGLRGGKSEITDEVKVNLTRDVDET | failed
10 | MFKSNYKGYGSGIISAMAWGLDTVLVGVILSMAPFINTESAIMLAPFVSTFLHDFFSTLWMFIYMIFTRQVGKLFKSLKTPSTKYVILASIFGGPMGMTGYLLSVNYIGPSYAATISSIYPAVGAVLAAIFLKEKISRKGYIGLTISILGIALLGFGNDGGKASLIGFLFAGLSVLGWGSESVICSYGMKDEDISPKQALQIRQFISALFSGVIILPLLKAYPLVFEVLKGNVTFVIIGTALMGTISYVCYYTAIHKLGPTRAMGLNITYVVWAMIFDKVLLGHNITIKMVICALMVMIGSFVVATQPAHEEELTNVTNTAV | failed
11 | MILSLNLLHKISPKLKKIPLNELCAALMDLGCEVETINSIKPSTNLVFAKVLEKTRHPNANHLNLVKVKANQKVYEIVCGANNFSVHNWVVLAKLNAELANGLKITPRELRGYVSNGMLCAYSEINPQATSFLTSTDLDGILVLDDNYDHYKTPNQIFNLDDVILDLSIPSNRNDLNGYFWIAKELCAYFDFEYVVDATINHRPHKEIIDVRILSDDVNSYGIIEVKNIQNYILKWNTKSILINNQIKVLNNFADNMNFLTLLTANPLHAFDARKISGQIVVKNAEEDAILLGLDQKEYLIKKGDLIIVDDQKILALAGIIGSNDSKIDATSTTAYIECANFNPMLIANTARRLKINTAAAMRFSKPLTNYVTKVTLKKLLANFKSDAKLIYYFKHSVHNVIKNKINQVSDFVGAEIDLDTAQTFLKRLGYKINKSNLITPSHRYDVLNEFDVYEDIMKKISIQEIKPQPISFDILNFENNLAYDFEKKVSDFLVDQGLFECKTYNLKNQTQAHEFNFFNFKQAYEINNPTSNMRSHLKLNNLNSLLEVLEYNQNQKNELENIFEISKINPVDSSQQTVLSIILCKPLINSKINDSLIVNNFVTTKALLHALLTKLNIDYAYDKNHVVNELYDNNQLALINANKQVFGFIGQLKNQVKKTYGLSNDIFIINLNLTSYLNQKQVITKVIKPSMYHDVIRDISVKLASDVDLNNIIANIKKIKNIRKVEISDLYIKDDGIIYTFKYYINDHLSNLSSEQIIIIEQEVNNYLKQF | failed
12 | MCGVELDSLISQVKDLLPDLGEGFILACLEYYHYDPEQVINNILEERLAPTLSQLDRNLDREMN | not failed
13 | MASGQGPGPPRQECGEPALPSASEEQVAQDTEEVFRSYVFYRHQQEQEAEGVAAPADPEMVTLPLQPSSTMGQVGRQLAIIGDDINRRYDSEFQTMLQHLQPTAENAYEYFTKIATSLFESGINWGRVVALLGFGYRLALHVYQHGLTGFLGQVTRFVVDFMLHHCIARWIAQRGGWVAALNLGNGPILNVLVVLGVVLLGQFVVRRFFKS | not failed
14 | MGCYHPLSGTDGTLMRHTLPIAPQFYVTAPQPCPYLAGRMERKLFTALQGEGAERLNNALSQQGFRRSQNVLYRPSCADCAACLSARIDVSAFRASRSQKRAMRRNAHLTRRATSPWATDEQYELFRRYLDSRHADGGMADMDVFEFAAMIEETPIRSRVIEYAHRDTRALIGVSLTDVLDDGLSMVYSFYDPDLHRDSLGTHMILDHIAIAREAGLPYVYLGYWVPGSPKMGYKSRFSGLEIYLGGRWQAMTDPEAHDAIRHPLSTDPIAEQVANIQLPDRWPTGD | failed
15 | MAPPSDSDPREPSPPLFQGRGLTKRFGSFVANQAIDLDIAGGEVHALLGENGAGKSTLVKLITGLLQPDDGRMIWRGTPISFAGPAEARACGIAAVSQHFALFDNLTVVENVALGLDRRISVGRLATELEQISQRYGLPLDPKREVWRLSVGERQRIEIVRALLQNPQLLILDEPTAVLTPAEADRLFDVLQRLRADGRALLYISHKLDEVKRLASVATILRAGRVVGSCDPRQESAASMARMMVGSDVTAPKQSSHSIGGPLLSVSGLTQRPDDPHGVTLRDIALEVRSGEIVGIAGVAGNGQDELFAALSGETPIAQSDVIHIAGEAAGSLSINQRRRLGAAFVPEQRLGHATVPTMSLSDNALLTGHATGALVKFGLVNRGAALALVDRVSEAFDVRKASRDPEAARLSGGNLQKFIVGREILRQPRLLIVDQPSWGLDAGAASAIRQALLDLAASGAAVLVISQDLDELIEIADRIAVMFHGRLSPPRPVSEIGRDQLGLLMGGSGWPAEVRDVAGALEHHHHHH | failed
16 | MFPAQEEADRTVFVGNLEARVREEILYELFLQAGPLTKVTICKDREGKPKSFGFVCFKHPESVSYAIALLNGIRLYGRPINVQYRFGSSRSSEPANQSFESCVKINSHNYRNEEMLVGRSSFPMQYFPINNTSLPQEYFLFQKMQWHVYNPVLQLPYYEMTAPLPNSASVSSSLNHVPDLEAGPSSYKWTHQQPSDSDLYQMTAPLPNSASVSSSLNHVPDLEAGPSSYKWTHQQPSDSDLYQMNKRKRQKQTSDSDSSTDNNRGNECSQKFRKSKKKKRY | not failed
17 | NALHIINMVGTRNATDYGKHICVSFLQELQMLCPDVLVVSGLAYGIDINAHRSALSVELPTVGVLAHGLDRIYPSLHRKTAIDMLRQGGLLTEFLSGTNPDKHNFISRNRIVAGISDATIVVESAAKGGSLITADIAGSYHRDCFAFPGR | failed
18 | MDKNIKNKAEELIKDLIQKIDNNPYDAQAYYNLGVALNDAHSAEQAEELFKKALNIFANSKEKSSLMHYGLGNVYYTNSIYDKAIVEFKKVQSEKLKQDSMLMMAQAYYAQENYPQAMMYALTVSENTKHNVDAISLLASCFMATGDLTNARKYYLKALEYDKDNVEVLFQLGVIELSLSGEAGKYFDRVKNLDNEYYKKMQQRLADVQRFLMTQKKGKSDE | failed
19 | MKIHLGLVVLVFAAMIAAPRSHAADSSAPRVALVIGNSKYPDADKPLSQAVSDARELADDLKRAGFDAELGEDLSGDAMRRAFDRLYQRTKPGAAALVFFSGFGIQSGRQSYLIPADAQIWTEPDVRRDGIALETVLNELNSRGASVKIALIDASRRNPFERRFRSFSAGLAPVIAPSGSLVMYAAALSAVVTDNDSARSPFVTALREEVRAAGRSAEEAFNRARTAVTRASRGEQVPWISSSLAEDFVFTPGAKADKPAVAEPAKQPAAAAPAPAESAKPPTAPAETKPPQAAEAKPSTSRDDDKLVLALASDPTVKSLTAQIADKPSDGNAYYRRGQVYASKGAYRSAIKDFDEAIRLNGKDVEAYNNRCWVRTVIGELEPALADCDQALQLRSNFVDALDSRGLLHLKSGRDKAAIADFDAALKVNPRLTSSLYGRGLARKRIGLASEGEIDLTTAKKLDPNIGKEFAGYGVP | failed
20 | MKRIHVRYKQIRRFFLLLGLVIIAAYVAFVLYRYWDHWLLLSNPQKAIENFEQQFRSENLFNFLVLTVLTSLTAAIPFLSSSVLSVFNGVVFGPWIGVLMNTIGNILGHFFLIQMMSRVDLTERDSKFNHHLERLSQIKNPYLALTLGYMIPFIPSFLVDYMVLDTKIPWHRWLPCLTLGVIPTSILYAFGGHAIIAGNMKQLILIVLLALILLAIYKRFEKKKG | failed
21 | EDAWMGTHPKYLEMMELDIGDATQVYVAFLVYLDLMESKSWHEVNCVGLPELQLICLVGTEIEGEGLQTVVPTPITASLSHNRIREILKASRKLQGDPDLPMSFTLAIVESDSTIVYYKLTD | not failed
